Results on three molecules are retold here after paper PMC7138840.

B1: ROPY (RFP-OP18-YFP) FRET sensor: stathmin/oncoprotein18 (OP18) with sYFP2 donor and mScarlet-I R125I acceptor (natural protein)
chain: MASSDIQVKELEKRASGQAFELILSPRSKESVPDFPLSPPKKKDLSLEEIQKKLEAAEERRKSHEAEVLKQLAEKREHEKEVLQKAIEENNNFSKMAEEKLTHKMEANKENREAQMAAKLERLREKDKHVEEVRKNKESKDPADETEAD
B2: ROPY-4A, phospho-blocking variant of ROPY with four serines mutated into alanines (natural protein)
chain: MASSDIQVKELEKRAAGQAFELILAPRSKESVPDFPLAPPKKKDLSLEEIQKKLEAAEERRKAHEAEVLKQLAEKREHEKEVLQKAIEENNNFSKMAEEKLTHKMEANKENREAQMAAKLERLREKDKHVEEVRKNKESKDPADETEAD
B3: ROPY-4E, phospho-mimetic variant of ROPY with four serines mutated into glutamic acids (natural protein)
chain: MASSDIQVKELEKRAEGQAFELILEPRSKESVPDFPLEPPKKKDLSLEEIQKKLEAAEERRKEHEAEVLKQLAEKREHEKEVLQKAIEENNNFSKMAEEKLTHKMEANKENREAQMAAKLERLREKDKHVEEVRKNKESKDPADETEAD

The assay concerns the target free tubulin heterodimers (human (endogenous in HEK293T and HeLa)) (UniProt P68363).
UniProt P68363, sequence (P68363 whole entry, chain 1 of 2): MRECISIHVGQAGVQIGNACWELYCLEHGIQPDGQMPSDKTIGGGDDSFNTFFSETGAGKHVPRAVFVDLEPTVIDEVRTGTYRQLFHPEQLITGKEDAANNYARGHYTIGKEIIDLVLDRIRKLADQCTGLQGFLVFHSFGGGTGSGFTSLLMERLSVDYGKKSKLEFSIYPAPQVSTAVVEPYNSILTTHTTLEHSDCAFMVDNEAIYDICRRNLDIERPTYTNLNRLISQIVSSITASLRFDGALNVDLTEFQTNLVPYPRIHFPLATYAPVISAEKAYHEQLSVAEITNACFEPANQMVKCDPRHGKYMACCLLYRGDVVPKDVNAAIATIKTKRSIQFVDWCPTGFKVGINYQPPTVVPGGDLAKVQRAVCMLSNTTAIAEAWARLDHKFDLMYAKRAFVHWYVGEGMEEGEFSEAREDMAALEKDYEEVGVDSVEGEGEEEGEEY
UniProt P68363, sequence (P07437 whole entry, chain 2 of 2, further chain): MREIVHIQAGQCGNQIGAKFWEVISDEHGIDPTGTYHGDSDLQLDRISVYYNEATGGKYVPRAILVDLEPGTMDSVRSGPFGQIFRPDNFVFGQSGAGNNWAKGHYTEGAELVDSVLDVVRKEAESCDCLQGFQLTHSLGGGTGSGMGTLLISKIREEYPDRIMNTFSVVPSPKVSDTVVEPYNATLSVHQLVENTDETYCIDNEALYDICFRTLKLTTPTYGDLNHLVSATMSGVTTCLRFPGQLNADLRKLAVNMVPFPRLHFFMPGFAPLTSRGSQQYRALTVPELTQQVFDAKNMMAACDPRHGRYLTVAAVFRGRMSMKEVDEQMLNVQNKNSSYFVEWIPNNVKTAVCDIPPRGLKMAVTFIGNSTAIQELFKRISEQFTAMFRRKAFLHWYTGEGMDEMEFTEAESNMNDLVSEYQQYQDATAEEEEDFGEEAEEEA
Regarding B1, the Relative FRET increase (RFP/YFP ratio of the intramolecular sensor) after 10 µM paclitaxel for 1 h, HEK293T cells is 1.11.
Consider B2, for which the Relative FRET increase (RFP/YFP ratio of the intramolecular sensor) after 10 µM paclitaxel for 1 h, HEK293T cells came out at 1.15.
As to B3, the Relative FRET increase (RFP/YFP ratio of the intramolecular sensor) after 10 µM paclitaxel for 1 h, HEK293T cells was 1.01.
